Reference: patent KR20120134547A
Bridge positions count the residues as written; N and C are the ends. Ends that are not written are not given here.

Biological target: TAB-XC154 자가면역항체
Assay: competition: XC154 antibody (100 ng) pre-incubated with 10^11 or 10^12 XC154p1 phage, then flow cytometry on HepG2 or LnCap-LN3 cells

- percent inhibition: > 90%
Binder: CLPSWFHRC (disulfide 1-9 (inferred); also: displayed on phage) [XC154p1 에피토프 발현 파아지 (…)]
